# Assay results from patent US20140348834A1 (published 2014).
# Where two headings read alike, the source gives them in different places.
# T1: mouse IL-17A (mouse, UniProt Q62386 26-158, limits assumed)
# T1 construct: Purified recombinant protein in SPR; also called MuIL-17A; murine IL-17A
# T1 sequence (looked up): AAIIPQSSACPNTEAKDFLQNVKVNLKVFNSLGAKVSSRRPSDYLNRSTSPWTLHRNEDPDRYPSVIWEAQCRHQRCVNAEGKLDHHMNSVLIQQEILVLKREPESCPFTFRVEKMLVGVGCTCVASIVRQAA
# T2: rat IL-17A (rat, UniProt Q61453 18-150, limits assumed)
# T2 construct: Purified recombinant protein in SPR
# T2 sequence (looked up): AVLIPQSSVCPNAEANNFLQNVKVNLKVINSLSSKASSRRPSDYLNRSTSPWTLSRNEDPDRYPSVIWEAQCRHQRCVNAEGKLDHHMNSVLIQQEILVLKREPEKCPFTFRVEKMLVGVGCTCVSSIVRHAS
# B1: IL17-h10F7.11 (antibody, V domains shown)
# VH: EVQLVQSGAEVKKPGSSVKVSCKASGYTFTDYEIHWVRQAPGQGLEWIGVNDPESGGTFYNQKFDGRATLTADKSTSTAYMELSSLRSEDTAVYYCTRYYRYESFYGMDYWGQGTTVTVSS
# VL: EIVLTQSPDFQSVTPKEKVTITCSASSSISYIYWFQQKPDQSPKRWIYATFELASGVPSRFSGSGSGTDYTLTINSLEAEDAATYYCHQRSSYPWTFGQGTKLEIKR
# notes: IgG; constant regions not specified; also called h10F7.11 (VH.1a-Vk.2a)
# B2: ML109-10G9 (antibody, V domains shown)
# VH: QVQLKESGPALVAPSQSLSFTCTISGFSLSSYGVHWVRQPPGKGLEWLVVIWSDGTTTYNSALKSRLSISKDNSKSQVFLKMNSLQTDDTAMYYCARDGYYIYTMDYWGQGTSVTVSS
# VL: DVVMTQTPLSLPVSLGDQASISCRSSQSLVHSNGNTYLHWYLQRPGQSPKLLIYKVSNRFSGVPDRFSGSGSGTDFTLKISRVEAEDLGLYFCSQGTHAPLTFGAGTKLELNR
# B3: ML109-6C6 (antibody, V domains shown)
# VH: QVQLQQSGAELVRPGASVKLSCKASGYTFSDYEIHWVKQTPVHGLAWIGVIHPGNGGTAYNQKFKDKATLTADKSSSTAYMELSSLTSEDSAVYYCERFLTYEGYFDYWGQGTTLTVSS
# VL: SIVMTQTPKFLLVSAGDRVTITCKASQSVNNDVAWYQHKPGQSPKLLINYASNRYTGVPDRFTGSGYGTDFTFTISTVQAEDLAIYFCQQDYGSPYTFGGGTKLEIKR
# notes: Hybridoma-derived murine mAb; also called 6C6.3B4
# B4: ML109-5C5 (antibody, V domains shown)
# VH: QVQLQQSGAELVRPGASVKLSCKALGYTFTDYEFHWVKQTPVHGLEWIGVIHPGNGGTAYNQNFRDKATLTADKSSSTAYMELSSLTSEDSGVYYCTRFLTYEGYFDYWGQGTALTVSS
# VL: NIVMTQTPKFLLVSPGDRVTITCKASQSVSIDVGWFQQKPGQSPKLLIYHASNRYTGVPDRFTGSGYGTDFTFTVNTVQAEDLAVYFCQQDYSSPYTFGGGTKLELKR
# B5: ML109-1D8 (antibody, V domains shown)
# VH: QVQLQQSGAELVRPGASVKLSCKASGYTFSDYEMHWVKQTPVHGLEWIGVIHPGNGGTAYNQKFRDKATLTADKSSTTAYMELSSLTSEDSAVYYCIRFLTYEGYFDYWGQGTTLTVSS
# VL: SIVMTQTPKFLLVSAGDRVTITCKASQSVNNDVAWFQHKPGQSPKLLINYASNRYTGVPDRFTGSGYGTDFTFTISTVQSEDLAIYFCQQDYGSPYTFGGGTTLEIKR
# B6: IL17-h10F7.9 (antibody, V domains shown)
# VH: QVQLQQSGAELVRPGTSVTLSCKASGYIFTDYEIHWVKQTPVHGLEWIGVNDPESGGTFYNQKFDGKAELTADKSSSTAYMELRSLTSEDSGVYYCTRYYRYESFYGMDYWGQGTSITVSS
# VL: EIVLTQSPDFQSVTPKEKVTITCSASSSISYIYWFQQKPDQSPKRWIYATFELASGVPSRFSGSGSGTDYTLTINSLEAEDAATYYCHQRSSYPWTFGQGTKLEIKR
# notes: IgG; constant regions not specified
# B7: m10F7hIgG1 (antibody, V domains shown)
# VH: QVQLQQSGAELVRPGTSVTLSCKASGYIFTDYEIHWVKQTPVHGLEWIGVNDPESGGTFYNQKFDGKAELTADKSSSTAYMELRSLTSEDSGVYYCTRYYRYESFYGMDYWGQGTSITVSS
# VL: QIVLTQSPAIMSASPGEKVTMTCSASSSISYIYWFQQKPGTSPKRWIYATFELASGVPARFSGSGSGTSYSLTISSMEAEDAATYYCHQRSSYPWTFGGGSKLEIKR
# Legend:
# human IL-17A [1] = target: T3, human IL-17A (human, UniProt Q16552 24-155); assay: hIL17A ELISA
# T3 construct: Recombinant; biotinylated in the ELISA; also called hIL-17; hIL17A
# human IL-17A [2] = target: T3, human IL-17A; assay: cell-based or functional assay
# cynomolgus monkey IL-17A [3] = target: T4, cynomolgus monkey IL-17A (cynomolgus monkey, UniProt A0A2K5TTB0 24-155); assay: cell-based or functional assay
# human IL-17A [4] = target: T3, human IL-17A; assay: SPR (Biacore 3000), antibody captured by anti-Fc, antigen in solution
# Experimental: (§1) The binding of antibodies to purified recombinant human, cyno, rat, mouse, rabbit IL-17 and human IL-17A/F were determined by surface plasmon resonance-based measurements with a Biacore® 3000 instrument (Biacore® AB, Uppsala, Sweden) using running HBS-EP (10 mM HEPES [pH 7.4], 150 mM NaCl, 3 mM EDTA, and 0.005% surfactant P20) at 25° C. […] Approximately 5000 RU of goat anti-mouse or anti-human IgG (Fcγ) fragment specific polyclonal antibody (Pierce Biotechnology Inc, Rockford, Ill.) diluted in 10 mM sodium acetate (pH 4.5) was directly immobilized across a CM5 research grade biosensor chip using a standard amine coupling kit according to manufacturer's instructions and procedures at 25 μg/ml. Unreacted moieties on the biosensor surface were blocked with ethanolamine. Modified carboxymethyl dextran surface in flowcell 2 and 4 was used as a reaction surface. Unmodified carboxymethyl dextran without goat anti-mouse or anti-human IgG in flow cell 1 and 3 was used as the reference surface. For kinetic analysis, rate equations derived from the 1:1 Langmuir binding model were fitted simultaneously to association and dissociation phases of all eight injections (using global fit analysis) with the use of Biaevaluation 4.0.1 software. Purified antibodies were diluted in HEPES-buffered saline for capture across goat anti-mouse or anti-human IgG specific reaction surfaces. Antibodies to be captured as a ligand (25 μg/ml) were injected over reaction matrices at a flow rate of 5 μl/min. The association and dissociation rate constants, kon (unit M-1s-1) and koff (unit s-1) were determined under a continuous flow rate of 25 μl/min. Rate constants were derived by making kinetic binding measurements at ten different antigen concentrations ranging from 10 nM to 200 nM. The equilibrium dissociation constant (unit M) of the reaction between antibodies and recombinant purified IL-17 antigens was then calculated from the kinetic rate constants by the following formula: KD=koff/kon. Binding was recorded as a function of time and kinetic rate constants are calculated. In this assay, on-rates as fast as 10⁶ M⁻¹ s⁻¹ and off-rates as slow as 10⁻⁶ s⁻¹ can be measured.
# cynomolgus monkey IL-17A [5] = target: T4, cynomolgus monkey IL-17A; assay: as above
# Experimental: as §1
# mouse IL-17A [6] = target: T1, mouse IL-17A; assay: as above
# Experimental: as §1
# human IL-17A/F [7] = target: T5, human IL-17A/F (human, UniProt Q16552 24-155; Q96PD4 31-163); assay: as above
# T5 construct: Recombinant; biotinylated in the ELISA; also called hIL-17A/F; HuIL-17A/F
# Experimental: as §1
# rat IL-17A [8] = target: T2, rat IL-17A; assay: as above
# Experimental: as §1
# human IL-17A [9] = target: T3, human IL-17A; assay: cell-based or functional assay; remark: listed apart in the source
# human IL-17A [10] = target: T3, human IL-17A; assay: SPR (Biacore 3000), antibody captured by anti-Fc, antigen in solution; remark: listed apart in the source
# Experimental: as §1
# cynomolgus monkey IL-17A [11] = target: T4, cynomolgus monkey IL-17A; assay: as above; remark: listed apart in the source
# Experimental: as §1
# mouse IL-17A [12] = target: T1, mouse IL-17A; assay: as above; remark: listed apart in the source
# Experimental: as §1
# human IL-17A/F [13] = target: T5, human IL-17A/F; assay: as above; remark: listed apart in the source
# Experimental: as §1
# rat IL-17A [14] = target: T2, rat IL-17A; assay: as above; remark: listed apart in the source
# Experimental: as §1
# T5 sequence (Q16552 24-155, chain 1 of 2): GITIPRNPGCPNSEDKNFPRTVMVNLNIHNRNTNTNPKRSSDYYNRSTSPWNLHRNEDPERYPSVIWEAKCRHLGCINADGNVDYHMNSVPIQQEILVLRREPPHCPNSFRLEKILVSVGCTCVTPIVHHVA
# T5 sequence (Q96PD4 31-163, chain 2 of 2): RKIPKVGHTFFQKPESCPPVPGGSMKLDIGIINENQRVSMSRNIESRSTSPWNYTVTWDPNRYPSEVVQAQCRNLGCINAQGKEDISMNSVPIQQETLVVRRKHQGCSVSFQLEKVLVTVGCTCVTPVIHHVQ
# T3 sequence (Q16552 24-155): as the sequence (Q16552 24-155, chain 1 of 2) above
# T4 sequence (A0A2K5TTB0 entry or part of it): as the sequence (Q16552 24-155, chain 1 of 2) above, with T3A, P8S, N34S, I77V, N78K, P104R counted along it
binder,measurement,setting,value
B1,EC50,human IL-17A [1],0.1 nM
same,"Potency (pM), IL-17-driven IL-6 production in HS27 cells",human IL-17A [2],326 pM
same,"Potency (pM), IL-17-driven IL-6 production in HS27 cells",cynomolgus monkey IL-17A [3],622 pM
same,Kd,human IL-17A [4],0.524 nM
same,koff,human IL-17A [4],0.000142 s⁻¹
same,kon,human IL-17A [4],271000 M⁻¹ s⁻¹
same,Kd,cynomolgus monkey IL-17A [5],0.773 nM
same,koff,cynomolgus monkey IL-17A [5],0.000351 s⁻¹
same,kon,cynomolgus monkey IL-17A [5],454000 M⁻¹ s⁻¹
same,Kd,mouse IL-17A [6],2.21 nM
same,koff,mouse IL-17A [6],0.000522 s⁻¹
same,kon,mouse IL-17A [6],236000 M⁻¹ s⁻¹
same,Kd,human IL-17A/F [7],2.11 nM
same,koff,human IL-17A/F [7],0.00086 s⁻¹
same,kon,human IL-17A/F [7],408000 M⁻¹ s⁻¹
same,Kd,rat IL-17A [8],3.77 nM
same,koff,rat IL-17A [8],0.000667 s⁻¹
same,kon,rat IL-17A [8],177000 M⁻¹ s⁻¹
B2,"Potency (pM), IL-17-driven IL-6 production in HS27 cells",human IL-17A [9],131 pM
B3,"Potency (pM), IL-17-driven IL-6 production in HS27 cells",human IL-17A [9],36 pM
same,Kd,human IL-17A [10],0.0187 nM
same,koff,human IL-17A [10],6.78e-05 s⁻¹
same,kon,human IL-17A [10],3.63e+06 M⁻¹ s⁻¹
same,Kd,cynomolgus monkey IL-17A [11],0.0425 nM
same,koff,cynomolgus monkey IL-17A [11],0.000116 s⁻¹
same,kon,cynomolgus monkey IL-17A [11],2.73e+06 M⁻¹ s⁻¹
same,Kd,mouse IL-17A [12],0.357 nM
same,koff,mouse IL-17A [12],0.00087 s⁻¹
same,kon,mouse IL-17A [12],2.44e+06 M⁻¹ s⁻¹
same,Kd,human IL-17A/F [13],0.189 nM
same,koff,human IL-17A/F [13],0.000366 s⁻¹
same,kon,human IL-17A/F [13],1.94e+06 M⁻¹ s⁻¹
same,Kd,rat IL-17A [14],0.142 nM
same,koff,rat IL-17A [14],0.000704 s⁻¹
same,kon,rat IL-17A [14],4.95e+06 M⁻¹ s⁻¹
B4,"Potency (pM), IL-17-driven IL-6 production in HS27 cells",human IL-17A [9],23 pM
B5,"Potency (pM), IL-17-driven IL-6 production in HS27 cells",human IL-17A [9],62 pM
B6,EC50,human IL-17A [1],0.04 nM
same,"Potency (pM), IL-17-driven IL-6 production in HS27 cells",human IL-17A [2],293 pM
B7,"Potency (pM), IL-17-driven IL-6 production in HS27 cells",human IL-17A [2],40 pM
same,"Potency (pM), IL-17-driven IL-6 production in HS27 cells",cynomolgus monkey IL-17A [3],79 pM
